Test results as given in US20260274955A1 (JANUX THERAPEUTICS, published 2026).

Target: T1, Anti-CD28 Fab (SEQ ID NOs: 202, 203)
T1 construct: biotinylated and captured on neutravidin coated plates in the phage ELISA
Assay: phage ELISA, Fab on plate, CD28 antigen as competitor
Method: After panning, phage infected bacteria were plated out and colonies picked into 96 well blocks. Clonal phage was then amplified and separated from bacterial cells via centrifugation.
Clonal phage were harvested as crude supernatants and screened via standard ELISAs. […] Prior to the addition of clonal phage, wells were incubated with blocking buffer and CD28 antigen or blocking buffer alone. Without washing or aspirating, clonal phage supernatants were then added to the wells and incubated for a short time. Wells were then washed followed by detection of bound phage using a horse radish conjugated anti-M13 antibody. Clonal phage of interest were then sent for sequence analysis.

T1 sequence (VH, as listed by the source, chain 1 of 2): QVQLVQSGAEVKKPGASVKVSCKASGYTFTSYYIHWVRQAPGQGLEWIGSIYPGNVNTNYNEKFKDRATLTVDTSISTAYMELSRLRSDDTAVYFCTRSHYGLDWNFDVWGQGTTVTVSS
T1 sequence (VL, as listed by the source, chain 2 of 2): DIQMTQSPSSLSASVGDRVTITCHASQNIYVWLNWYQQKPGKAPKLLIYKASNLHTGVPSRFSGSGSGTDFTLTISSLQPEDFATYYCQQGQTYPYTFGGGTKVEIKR

Binder	Anti-CD28 Fab signal in the presence of CD28
YCAGLFEEYMSKCL [Phage-685]	0.06
YCDGHSSVYMLKCL [Phage-680]	0.06
YCEGHLPRYMLKCL [Phage-671]	0.3
YCDGHSEQYMAKCL [Phage-687]	0.06
YCDGHLEVYMDKCL [Phage-672]	0.07
YCDGHVEEYMTKCL [Phage-691]	0.07
YCEGHQPAYMEKCL [Phage-677]	0.06
YCDGHLPVYMTKCL [Phage-679]	0.07
YCEGHHRIYMQKCL [Phage-681]	0.07
YCDGHLEQYMLKCL [Phage-692]	0.09
YCEGHFPLYMNKCL [Phage-675]	0.08
YCEGHSTEYMAKCL [Phage-676]	0.06
YCEGHSEEYMAKCL [Phage-682]	0.07
YCEGHIGIYMSKCL [Phage-693]	0.07
YCEGHTQEYMQKCL [Phage-688]	0.07
YCEGHSSQWMWKCL [Phage-674]	0.09
YCEGHLQEHMAKCL [Phage-684]	0.05
YCEGHLAEYMNKCL [Phage-690]	0.07
YCEGHMSIYMQKCL [Phage-683]	0.07
YCDGHAEEYRMKCL [Phage-678]	0.08
YCDGHSPAYLQKCL [Phage-673]	0.06

Target: T1, Anti-CD28 Fab (SEQ ID NOs: 202, 203)
Assay: phage ELISA, Fab on plate;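 note: crude clonal phage supernatants added to wells pretreated with blocking buffer with or without CD28 antigen, then bound phage read out via HRP-linked anti-M13 antibody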

Binder	Anti-CD28 Fab (SEQ ID NOs: 202, 203) signal
YCAGLFEEYMSKCL [Phage-685]	1.25
YCDGHSSVYMLKCL [Phage-680]	1.26
YCEGHLPRYMLKCL [Phage-671]	1.28
YCDGHSEQYMAKCL [Phage-687]	1.24
YCDGHLEVYMDKCL [Phage-672]	1.28
YCDGHVEEYMTKCL [Phage-691]	1.24
YCEGHQPAYMEKCL [Phage-677]	1.27
YCDGHLPVYMTKCL [Phage-679]	1.27
YCEGHHRIYMQKCL [Phage-681]	1.26
YCDGHLEQYMLKCL [Phage-692]	1.24
YCEGHFPLYMNKCL [Phage-675]	1.27
YCEGHSTEYMAKCL [Phage-676]	1.27
YCEGHSEEYMAKCL [Phage-682]	1.26
YCEGHIGIYMSKCL [Phage-693]	1.23
YCEGHTQEYMQKCL [Phage-688]	1.24
YCEGHSSQWMWKCL [Phage-674]	1.27
YCEGHLQEHMAKCL [Phage-684]	1.25
YCEGHLAEYMNKCL [Phage-690]	1.24
YCEGHMSIYMQKCL [Phage-683]	1.25
YCDGHAEEYRMKCL [Phage-678]	1.27
YCDGHSPAYLQKCL [Phage-673]	1.28
